Data as given in the supplement of paper PMC9732359.
± gives the uncertainty stated by the source.

Experiment: protein stability index of a GFP-peptide fusion (yeast GPS) (PSI 1-4); higher = more stable; sorted into four equal gates, so the index is relative within each strain
Procedure, shortened: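 Plasmids in a pooled yeast library fused tiled 17-residue yeast protein peptides downstream of GFP and also expressed Cherry. Mid-log cultures grown without leucine were sorted into four equal gates by GFP/Cherry fluorescence ratio. Each gate's plasmids were PCR-amplified and Illumina-sequenced, and reads were matched to strains by barcodes. The protein stability index is derived by multiplying each gate's read frequency by its gate number and summing the results.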

Sequence | protein stability index (doa10∆) | protein stability index (pdr5∆) | protein stability index (san1∆) | protein stability index (ubr1∆)
TVELQVGLKNYDPQRDK [RPL1A] | 3.05 ± 0.091 | 3.12 ± 0.082 | 3.12 ± 0.094 | 3.18 ± 0.076
HVEKERASTELSQSRIK [YIL149C/MLP2] | 3.01 ± 0.089 | 2.93 ± 0.066 | 3.12 ± 0.095 | 3.1 ± 0.074
AKPFQVTKEYFQDVYDL [FAS1] | 2.96 ± 0.12 | 2.81 ± 0.074 | 2.4 ± 0.088 | 2.72 ± 0.063
TKPFENVEKYPTFVEFI [SNU114] | 2.7 ± 0.23 | 3.02 ± 0.1 | 2.87 ± 0.11 | 2.86 ± 0.11
EEPAKEEAPAPTPAASA [FAS2] | 2.75 ± 0.14 | 2.82 ± 0.12 | 2.69 ± 0.26 | 2.98 ± 0.14
KDLFELERYYKEQADIY [ARP7] | 3.11 ± 0.09 | 3.34 ± 0.083 | 3.46 ± 0.12 | 3.41 ± 0.067
EVLQGLLQGGAKVVVTT [FAS2] | 3.22 ± 0.092 | 2.91 ± 0.076 | 2.29 ± 0.076 | 1.61 ± 0.088
LGLAKSVHHARVLITQR [RPS9A] | 2.34 ± 0.12 | 2.86 ± 0.15 | 2.61 ± 0.17 | 
RKSYKNQIADLSGKFST [ROX3] | 2.76 ± 0.082 | 2.94 ± 0.063 | 2.84 ± 0.06 | 2.92 ± 0.036
QKKATMSAEEALVYSYI [RPC34] | 1.43 ± 0.14 | 1.08 ± 0.099 |  | 1.36 ± 0.22
PRQLHNTHWGLVCPAET [RPB2] | 1.6 ± 0.089 | 1.7 ± 0.07 | 1.47 ± 0.12 | 1.2 ± 0.088
MVHLYSIVEECDARFDE [RPC17] | 3.04 ± 0.12 | 2.94 ± 0.078 | 3.01 ± 0.099 | 2.74 ± 0.18
RKVREQEELKKRQELEE [MED2] | 1.86 ± 0.039 | 2.36 ± 0.048 | 1.96 ± 0.1 | 2.55 ± 0.033
YVDPETTYTYQQPNPLQ [ROX3] | 2.33 ± 0.087 | 2.31 ± 0.099 | 2.02 ± 0.12 | 2.86 ± 0.12
TSYKKWSFDLPEMSNLY [PRP8] | 2.6 ± 0.055 | 2.52 ± 0.05 | 2.26 ± 0.058 | 2.13 ± 0.044
TRAQYLAFAKLVHSEYL [SRP68] | 1.58 ± 0.08 | 1.87 ± 0.063 | 1.47 ± 0.094 | 1.79 ± 0.052
KPLGTTRAMEYLKFREL [RPB2] | 2.49 ± 0.065 | 2.86 ± 0.077 | 3.13 ± 0.068 | 2.9 ± 0.056
PAFSNSNGFNNVTFGSK [YMR153W/NUP53] | 2.68 ± 0.054 | 2.96 ± 0.067 | 3.1 ± 0.037 | 3.13 ± 0.048
LLRRLKKDVEKELPDKV [SNF2] |  | 3.67 ± 0.24 | 3.36 ± 0.092 | 3.38 ± 0.12
EINNLIQLPASLAATYS [ARP9] | 1.59 ± 0.063 | 1.87 ± 0.045 | 1.96 ± 0.07 | 1.65 ± 0.047
NIKSNDFSIRKTCAKSV [ECM29] | 2.55 ± 0.087 | 2.24 ± 0.1 | 2.27 ± 0.18 | 2.83 ± 0.15
INELTLLVQKRFKYAPG [RPS3] | 2.83 ± 0.2 | 2.81 ± 0.14 | 2.75 ± 0.12 | 2.96 ± 0.13
VLTYPEKVTRYNRHKLQ [RPO31] | 2.1 ± 0.055 | 1.6 ± 0.048 | 2.32 ± 0.052 | 1.43 ± 0.05
PIMFQDFDDSTAQEINF [IRR1] | 2.81 ± 0.057 | 2.92 ± 0.059 | 2.52 ± 0.053 | 2.88 ± 0.043

Sequence | protein stability index (doa10∆) | protein stability index (pdr5∆) | protein stability index (san1∆) | protein stability index (ubr1∆)
ARDEILPLRLQFNEFIQ [PGD1] | 2.55 ± 0.083 | 3.01 ± 0.065 | 2.74 ± 0.078 | 2.79 ± 0.058
SFHVQKKTCSSCGYPSA [RPL37B] | 1.86 ± 0.08 | 2.18 ± 0.076 | 1.86 ± 0.12 | 2.19 ± 0.059
RENMICKIDFQKNFMDQ [RRI2] | 2.9 ± 0.13 | 2.96 ± 0.11 | 3.19 ± 0.067 | 3.24 ± 0.081
NRAARDRRAQRVAEKRD [RPL19A] | 2.94 ± 0.12 | 2.69 ± 0.082 | 2.85 ± 0.089 | 3.19 ± 0.06
KALKTNINFASGVKNDI [CDC53] | 3.09 ± 0.089 | 3.22 ± 0.068 | 2.83 ± 0.095 | 3.04 ± 0.074
KNLNPASSSPSSTDFST [ECM29] | 3.11 ± 0.049 | 2.81 ± 0.045 | 2.97 ± 0.056 | 2.91 ± 0.032
KEKIEKLSKSATESIKN [SMC1] | 3.28 ± 0.12 | 2.99 ± 0.21 | 2.97 ± 0.079 | 3.07 ± 0.072
AKKSTTISKESTPDQRK [ESC2] | 2.59 ± 0.1 | 2.78 ± 0.12 | 2.94 ± 0.13 | 2.92 ± 0.054
LSCEKITHYAVRGGNIE [RRI1] | 2.37 ± 0.062 | 2.3 ± 0.078 | 2.51 ± 0.08 | 2.19 ± 0.047
LLFFNFSHSLTTILSFS [NUT1] | 1.41 ± 0.046 | 1.41 ± 0.034 | 1.46 ± 0.059 | 1.37 ± 0.033
QAISYLHKLQRMRLRAL [GRR1] | 1.77 ± 0.057 | 1.74 ± 0.053 | 1.8 ± 0.055 | 1.49 ± 0.028
KVDWAREHFEKTVAVDS [RPL3] | 1.8 ± 0.18 |  | 1.54 ± 0.15 | 1.9 ± 0.15
MEMSEKIQFILEQMELS [RPN5] |  | 2.65 ± 0.24 | 2.35 ± 0.29 | 2.66 ± 0.19
KREESESAAVYNGRGAR [SNF2] | 3.09 ± 0.17 | 3.02 ± 0.091 | 3.35 ± 0.057 | 3.49 ± 0.085
CNQMENLLESITKLLEI [YCS4] | 3.19 ± 0.083 | 2.8 ± 0.054 | 2.9 ± 0.061 | 2.96 ± 0.059
NKRLSRGKKGLKKKVVD [RPS1B] |  | 3.44 ± 0.15 | 2.75 ± 0.24 | 3.38 ± 0.14
VTLASILTTAVGLVSPS [RPN1] | 1.98 ± 0.13 | 1.55 ± 0.081 | 2.25 ± 0.19 | 2.85 ± 0.087
SRPASYGYFSVGKRVPI [SIR4] | 2.31 ± 0.19 | 2.14 ± 0.11 | 2.15 ± 0.13 | 
SIISSKTSCVVEKRIGK [RGR1] | 2.46 ± 0.089 | 2.62 ± 0.084 | 2.59 ± 0.093 | 2.69 ± 0.05
APTPAAPGASVPATAAP [SWI1] | 2.93 ± 0.068 | 3.05 ± 0.054 | 3.11 ± 0.042 | 3.21 ± 0.05
HFRAPSRILYKAIRGMV [RPL16B] | 2.19 ± 0.096 | 2.67 ± 0.059 | 2.14 ± 0.1 | 2.21 ± 0.062
RMYEEASGKEVEKVATA [RPN2] | 2.67 ± 0.25 |  |  | 
VRSLLEVVQTGAKNIEI [PRE6] | 3.38 ± 0.14 | 3.29 ± 0.098 | 3.06 ± 0.074 | 3.21 ± 0.069
